In the supplement of paper PMC10567573:

B1: KIAA1161 (parent)
chain: FMPAMQFSIPPWRYDAEVVAIAQK
B2: DVL3 (parent)
chain: FCADNPSELPPPMERTGGIGDSRP

Variants of: B1
Experiment: protein stability index of a GFP-peptide fusion (GPS, HEK-293T) (PSI 1-6); higher = more stable
Details: c terminus: a fixed tail appended
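Also: lentivirally expressed fusions sorted by FACS into six bins by GFP to DsRed ratio, PSI derived from sequencing read proportions per bin multiplied by bin number.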

Row | Variant | protein stability index
1 | A20T | 1.92
2 | A20Q | 2.41
3 | A20R | 1.98
4 | A20S | 1.59
5 | A20V | 1.91
6 | A20W | 1.04
7 | A22Y | 1.23
8 | A22V | 2.01
9 | A22N | 1.6
10 | A22K | 1.88
11 | A22P | 2.58
12 | A22Q | 2.56
13 | A22L | 2.45
14 | A22T | 2.51
15 | A22S | 1.94
16 | A22F | 2.18
17 | A22H | 1.9
18 | A22D | 1.96
19 | Q23P | 1.99
20 | Q23H | 1.66
21 | Q23A | 2.23

Row | Variant | protein stability index
22 | Q23M | 3.29
23 | Q23N | 1.85
24 | Q23T | 1.92
25 | Q23F | 1.35
26 | Q23K | 2.2
27 | Q23Y | 1.3
28 | Q23G | 1.78
29 | Q23D | 2.69
30 | Q23S | 1.52
31 | Q23W | 2.74
32 | K24N | 2.58
33 | K24M | 1.33
34 | K24Q | 1.86
35 | K24S | 1.68
36 | K24R | 1.67
37 | K24D | 1.82
38 | K24E | 1.82
39 | K24P | 2.01
40 | K24L | 2.62
41 | K24A | 2.31
42 | K24H | 2.54

Row | Variant | protein stability index
43 | K24F | 2
44 | K24T | 1.63
45 | K24C | 1.61
46 | K24V | 2.36
47 | K24G | 1.33
48 | I21E | 2.6
49 | I21L | 1.93
50 | I21R | 2.31
51 | I21D | 2.59
52 | I21P | 2.16
53 | I21N | 2.11
54 | I21H | 2.32
55 | I21T | 2.17
56 | I21Y | 1.64
57 | I21F | 2.52
58 | I21G | 2.66
59 | I21S | 2.38
60 | I21K | 2.07
61 | I21V | 1.68
62 | I21Q | 2.81

Variants of: B2
Experiment: as above
Details: c terminus: a fixed tail appended

Row | Variant | protein stability index
63 | C2R | 4.58
64 | C2K | 4.68
65 | C2H | 4.36
66 | C2W | 3.44
67 | C2L | 5
68 | C2A | 4.77
69 | C2Y | 4.75
70 | C2T | 5.06
71 | C2I | 4.71
72 | C2S | 5
73 | C2D | 5.46
74 | C2P | 4.73
75 | C2M | 4.71
76 | C2F | 4.31
77 | C2V | 3.27
78 | C2N | 4.43
79 | C2G | 4.83
80 | F1P | 5.44
81 | F1M | 3.45
82 | F1R | 4.68
83 | F1I | 5.05
84 | F1K | 4.86
85 | F1S | 4.94
86 | F1G | 5.33
87 | F1N | 5.58

Row | Variant | protein stability index
88 | F1E | 5.12
89 | F1L | 4.63
90 | F1Y | 4.89
91 | F1W | 4.26
92 | F1Q | 4.83
93 | F1T | 4.99
94 | F1V | 5.18
95 | F1H | 5.25
96 | F1D | 5.43
97 | F1C | 3.99
98 | F1A | 5.49
99 | P11C | 4.33
100 | P11A | 5.1
101 | P11L | 4.64
102 | P11S | 4.58
103 | P11I | 4.54
104 | P11M | 4.45
105 | P11E | 4.05
106 | P11H | 4.43
107 | P11Q | 4.54
108 | P11W | 3.64
109 | P11T | 5.12
110 | P11N | 4.26
111 | P11R | 3.91
112 | P11G | 4.16

Row | Variant | protein stability index
113 | P11Y | 4.23
114 | P11D | 4.74
115 | P11V | 3.94
116 | P11F | 3.83
117 | R15F | 4.1
118 | R15N | 4.79
119 | R15A | 5.48
120 | R15M | 4.25
121 | R15C | 4.69
122 | R15W | 3.77
123 | R15E | 5.37
124 | R15T | 4.55
125 | R15P | 4.99
126 | R15K | 4.45
127 | R15G | 4.56
128 | R15I | 4.56
129 | R15Q | 4.37
130 | R15V | 4.5
131 | R15S | 4.82
132 | R15L | 4.51
133 | R15Y | 4.39
134 | R15D | 4.76
135 | R15H | 4.97
136 | P12D | 5.2
137 | P12Q | 4.75

Row | Variant | protein stability index
138 | P12S | 4.07
139 | P12N | 4.69
140 | P12R | 3.93
141 | P12K | 4.69
142 | P12C | 4.07
143 | P12W | 1.75
144 | P12V | 4.62
145 | P12E | 4.89
146 | P12H | 4.61
147 | P12G | 4.39
148 | P12L | 4.63
149 | P12F | 3.41
150 | P12Y | 3.63
151 | P12T | 3.99
152 | P12I | 3.76
153 | P12A | 5.55
154 | P12M | 4.19
155 | E8S | 4.63
156 | E8F | 2.6
157 | E8Y | 3.25
158 | E8R | 3.05
159 | E8W | 2.03
160 | E8A | 4.36
161 | E8P | 4.14
162 | E8Q | 2.77

Row | Variant | protein stability index
163 | E8T | 4.02
164 | E8N | 4.26
165 | E8G | 4.37
166 | E8H | 3.95
167 | E8K | 3.47
168 | E8I | 3.88
169 | E8L | 3.67
170 | E8M | 3.49
171 | E8D | 4.39
172 | E8C | 4.06
173 | N5G | 4.46
174 | N5S | 4.78
175 | N5D | 4.92
176 | N5M | 4.57
177 | N5T | 4.42
178 | N5K | 4.29
179 | N5F | 2.65
180 | N5I | 4.21
181 | N5Y | 3.62
182 | N5Q | 4.45
183 | N5L | 3.32
184 | N5H | 3.81
185 | N5W | 3.23
186 | N5E | 4.8
187 | N5A | 4.31

Row | Variant | protein stability index
188 | N5V | 4.58
189 | M13W | 2.97
190 | M13Y | 4.07
191 | M13F | 4.6
192 | M13G | 4.67
193 | M13L | 4.98
194 | M13V | 4.89
195 | M13I | 4.27
196 | M13R | 4.2
197 | M13Q | 5
198 | M13T | 4.57
199 | M13H | 4.77
200 | M13D | 4.98
201 | M13K | 5.04
202 | M13A | 5.31
203 | M13E | 5.18
204 | M13S | 4.25
205 | M13C | 4.22
206 | M13N | 4.77
207 | S7K | 4.98
208 | S7M | 4.3
209 | S7R | 3.58
210 | S7V | 4.14
211 | S7I | 4.19
212 | S7T | 4.22

Row | Variant | protein stability index
213 | S7Y | 3.81
214 | S7F | 4.24
215 | S7A | 4.57
216 | S7D | 5.04
217 | S7G | 4.01
218 | S7E | 5.11
219 | S7N | 4.45
220 | S7C | 3.85
221 | S7L | 4.57
222 | L9K | 4.66
223 | L9C | 4.79
224 | L9Q | 4.16
225 | L9N | 5.1
226 | L9S | 4.99
227 | L9M | 4.34
228 | L9V | 4.82
229 | L9I | 4.53
230 | L9H | 4.66
231 | L9Y | 4.11
232 | L9E | 5.34
233 | L9R | 4.32
234 | L9F | 4.44
235 | D4H | 4.27
236 | D4W | 2.06
237 | D4G | 4.37

Row | Variant | protein stability index
238 | D4K | 2.85
239 | D4L | 3.83
240 | D4T | 4.29
241 | D4V | 3.79
242 | D4I | 3.71
243 | D4N | 3.96
244 | D4R | 4.36
245 | D4S | 4.25
246 | D4Y | 3.98
247 | D4M | 3.26
248 | D4Q | 3.36
249 | D4E | 5
250 | D4A | 4.19
251 | D4F | 3.08
252 | P6I | 3.73
253 | P6K | 4.33
254 | P6V | 4.27
255 | P6F | 4.38
256 | P6Q | 4.95
257 | P6L | 3.88
258 | P6G | 3.85
259 | P6M | 3.8
260 | P6T | 3.99
261 | P6S | 3.95
262 | P6H | 4.08

Row | Variant | protein stability index
263 | P6R | 4.19
264 | P6N | 4.61
265 | P6D | 4.03
266 | P6E | 4.64
267 | P6Y | 4.27
268 | P6W | 2.33
269 | P6A | 4.71
270 | A3S | 4.81
271 | A3T | 4.29
272 | A3C | 4.13
273 | A3D | 5.11
274 | A3Q | 3.45
275 | A3K | 4.34
276 | A3F | 3.56
277 | A3I | 4.25
278 | A3E | 5.23
279 | A3M | 4.48
280 | A3H | 4.37
281 | A3Y | 4.49
282 | A3N | 4.79
283 | A3V | 4.78
284 | A3P | 4.17
285 | A3W | 3.64
286 | P10I | 3.81
287 | P10T | 4.61

Row | Variant | protein stability index
288 | P10W | 3.13
289 | P10L | 4.32
290 | P10R | 4.08
291 | P10D | 4.81
292 | P10G | 4.13
293 | P10V | 4.49
294 | P10C | 3.81
295 | P10E | 2.94
296 | P10F | 3.41
297 | P10H | 4.3
298 | P10K | 4.37
299 | P10S | 4.38
300 | P10A | 4.29
301 | P10M | 4.54
302 | P10Y | 3.74
303 | P10Q | 4.27
304 | P10N | 4.54
305 | T16E | 4.45
306 | T16G | 4.45
307 | T16A | 4.6
308 | T16F | 3.95
309 | T16N | 4.7
310 | T16C | 4.07
311 | T16L | 3.8
312 | T16H | 4.33

Row | Variant | protein stability index
313 | T16I | 3.98
314 | T16D | 5.18
315 | T16M | 4.11
316 | T16K | 4.29
317 | E14D | 4.55
318 | E14Q | 4.1
319 | E14K | 4.07
320 | E14T | 4.1
321 | E14L | 3.05
322 | E14G | 3.84
323 | E14H | 4.08
324 | E14Y | 3.13
325 | E14M | 4.37
326 | E14A | 4.24
327 | E14P | 4.27
328 | E14N | 4.35
329 | E14R | 3.78
330 | E14W | 1.93
331 | E14C | 3.68
332 | E14F | 3.45
333 | E14I | 3.98
334 | E14S | 4.31
